Source: patent US20260049138A1 (Chugai, published 2026)

target: T1, CD3ε homodimer protein (human, UniProt P07766 23-126, limits assumed); assay: SPR Biacore T200, CD3ε homodimer on chip;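 also: Light-chain single-residue variant antibodies injected over amine-coupled CD3ε homodimer on a CM4 chip at 25 °C, bound amount divided by that of the GLS3000-containing antibody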
T1 construct: also called CD3 (CD3ε)
T1 sequence (P07766 23-126 limits assumed): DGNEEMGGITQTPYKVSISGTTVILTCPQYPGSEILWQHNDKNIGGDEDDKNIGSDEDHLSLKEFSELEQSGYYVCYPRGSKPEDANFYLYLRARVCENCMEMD

Row | ratio of amount bound vs unaltered GLS3000 | Binder
1 | 0.65 | GLS3000 F55D one-arm antibody (antibody, human IgG1, kappa, L234A L235A, N297A, name in Kabat numbering) heavy: QVQLVESGGGVVQPGRSLRLSCAASGFTFSNAWMHWVRQAPGKGLEWVAQIKAKSNNYATYYAESVKGRFTISRDDSKNSLYLQMNSLKTEDTAVYYCRYVHYGAYYGVDAWGQGTTVTVSSASTKGPSVFPLAPSSKSTSGGTAALGCLVKDYFPEPVTVSWNSGALTSGVHTFPAVLQSSGLYSLSSVVTVPSSSLGTQTYICNVNHKPSNTKVDKKVEPKSCDKTHTCPPCPAPEAAGGPSVFLFPPKPKDTLMISRTPEVTCVVVDVSHEDPEVKFNWYVDGVEVHNAKTKPREEQYASTYRVVSVLTVLHQDWLNGKEYKCKVSNKALPAPIEKTISKAKGQPREPQVYTLPPSRCELTKNQVSLSCAVKGFYPSDIAVEWESNGQPENNYKTTPPVLDSDGSFFLVSKLTVDKSRWQQGNVFSCSVMHEALHNHYTQKSLSLSPDYKDDDDK EPKSSDKTHTCPPCPAPELLGGPSVFLFPPKPKDTLMISRTPEVTCVVVDVSHEDPEVKFNWYVDGVEVHNAKTKPREEQYNSTYRVVSVLTVLHQDWLNGKEYKCKVSNKALPAPIEKTISKAKGQPREPQVCTLPPSRDELTKNQVSLWCLVKGFYPSDIAVEWESNGQPENNYKTTPPVLDSDGSFFLYSKLTVDKSRWQQGNVFSCSVMHEALHNRYTQKSLSLSP light: DIVMTQSPLSLPVTPGEPASISCRSSQSLVHSNRNTYLHWYQQKPGQAPRLLIYKVSNRDSGVPDRFSGSGSGTDFTLKISRVEAEDVGVYYCGQGTQVPYTFGQGTKLEIKRTVAAPSVFIFPPSDEQLKSGTASVVCLLNNFYPREAKVQWKVDNALQSGNSQESVTEQDSKDSTYSLSSTLTLSKADYEKHKVYACEVTHQGLSSPVTKSFNRGEC
2 | 1.13 | GLS3000 F55A one-arm antibody (antibody, human IgG1, kappa, L234A L235A, N297A, name in Kabat numbering) heavy: QVQLVESGGGVVQPGRSLRLSCAASGFTFSNAWMHWVRQAPGKGLEWVAQIKAKSNNYATYYAESVKGRFTISRDDSKNSLYLQMNSLKTEDTAVYYCRYVHYGAYYGVDAWGQGTTVTVSSASTKGPSVFPLAPSSKSTSGGTAALGCLVKDYFPEPVTVSWNSGALTSGVHTFPAVLQSSGLYSLSSVVTVPSSSLGTQTYICNVNHKPSNTKVDKKVEPKSCDKTHTCPPCPAPEAAGGPSVFLFPPKPKDTLMISRTPEVTCVVVDVSHEDPEVKFNWYVDGVEVHNAKTKPREEQYASTYRVVSVLTVLHQDWLNGKEYKCKVSNKALPAPIEKTISKAKGQPREPQVYTLPPSRCELTKNQVSLSCAVKGFYPSDIAVEWESNGQPENNYKTTPPVLDSDGSFFLVSKLTVDKSRWQQGNVFSCSVMHEALHNHYTQKSLSLSPDYKDDDDK EPKSSDKTHTCPPCPAPELLGGPSVFLFPPKPKDTLMISRTPEVTCVVVDVSHEDPEVKFNWYVDGVEVHNAKTKPREEQYNSTYRVVSVLTVLHQDWLNGKEYKCKVSNKALPAPIEKTISKAKGQPREPQVCTLPPSRDELTKNQVSLWCLVKGFYPSDIAVEWESNGQPENNYKTTPPVLDSDGSFFLYSKLTVDKSRWQQGNVFSCSVMHEALHNRYTQKSLSLSP light: DIVMTQSPLSLPVTPGEPASISCRSSQSLVHSNRNTYLHWYQQKPGQAPRLLIYKVSNRASGVPDRFSGSGSGTDFTLKISRVEAEDVGVYYCGQGTQVPYTFGQGTKLEIKRTVAAPSVFIFPPSDEQLKSGTASVVCLLNNFYPREAKVQWKVDNALQSGNSQESVTEQDSKDSTYSLSSTLTLSKADYEKHKVYACEVTHQGLSSPVTKSFNRGEC

Continued, binder first:

Row | Binder | ratio of amount bound vs unaltered GLS3000
3 | GLS3000 H27dA one-arm antibody (antibody, human IgG1, kappa, L234A L235A, N297A, name in Kabat numbering) heavy: QVQLVESGGGVVQPGRSLRLSCAASGFTFSNAWMHWVRQAPGKGLEWVAQIKAKSNNYATYYAESVKGRFTISRDDSKNSLYLQMNSLKTEDTAVYYCRYVHYGAYYGVDAWGQGTTVTVSSASTKGPSVFPLAPSSKSTSGGTAALGCLVKDYFPEPVTVSWNSGALTSGVHTFPAVLQSSGLYSLSSVVTVPSSSLGTQTYICNVNHKPSNTKVDKKVEPKSCDKTHTCPPCPAPEAAGGPSVFLFPPKPKDTLMISRTPEVTCVVVDVSHEDPEVKFNWYVDGVEVHNAKTKPREEQYASTYRVVSVLTVLHQDWLNGKEYKCKVSNKALPAPIEKTISKAKGQPREPQVYTLPPSRCELTKNQVSLSCAVKGFYPSDIAVEWESNGQPENNYKTTPPVLDSDGSFFLVSKLTVDKSRWQQGNVFSCSVMHEALHNHYTQKSLSLSPDYKDDDDK EPKSSDKTHTCPPCPAPELLGGPSVFLFPPKPKDTLMISRTPEVTCVVVDVSHEDPEVKFNWYVDGVEVHNAKTKPREEQYNSTYRVVSVLTVLHQDWLNGKEYKCKVSNKALPAPIEKTISKAKGQPREPQVCTLPPSRDELTKNQVSLWCLVKGFYPSDIAVEWESNGQPENNYKTTPPVLDSDGSFFLYSKLTVDKSRWQQGNVFSCSVMHEALHNRYTQKSLSLSP light: DIVMTQSPLSLPVTPGEPASISCRSSQSLVASNRNTYLHWYQQKPGQAPRLLIYKVSNRFSGVPDRFSGSGSGTDFTLKISRVEAEDVGVYYCGQGTQVPYTFGQGTKLEIKRTVAAPSVFIFPPSDEQLKSGTASVVCLLNNFYPREAKVQWKVDNALQSGNSQESVTEQDSKDSTYSLSSTLTLSKADYEKHKVYACEVTHQGLSSPVTKSFNRGEC | 0.48
4 | GLS3000 F55E one-arm antibody (antibody, human IgG1, kappa, L234A L235A, N297A, name in Kabat numbering) heavy: QVQLVESGGGVVQPGRSLRLSCAASGFTFSNAWMHWVRQAPGKGLEWVAQIKAKSNNYATYYAESVKGRFTISRDDSKNSLYLQMNSLKTEDTAVYYCRYVHYGAYYGVDAWGQGTTVTVSSASTKGPSVFPLAPSSKSTSGGTAALGCLVKDYFPEPVTVSWNSGALTSGVHTFPAVLQSSGLYSLSSVVTVPSSSLGTQTYICNVNHKPSNTKVDKKVEPKSCDKTHTCPPCPAPEAAGGPSVFLFPPKPKDTLMISRTPEVTCVVVDVSHEDPEVKFNWYVDGVEVHNAKTKPREEQYASTYRVVSVLTVLHQDWLNGKEYKCKVSNKALPAPIEKTISKAKGQPREPQVYTLPPSRCELTKNQVSLSCAVKGFYPSDIAVEWESNGQPENNYKTTPPVLDSDGSFFLVSKLTVDKSRWQQGNVFSCSVMHEALHNHYTQKSLSLSPDYKDDDDK EPKSSDKTHTCPPCPAPELLGGPSVFLFPPKPKDTLMISRTPEVTCVVVDVSHEDPEVKFNWYVDGVEVHNAKTKPREEQYNSTYRVVSVLTVLHQDWLNGKEYKCKVSNKALPAPIEKTISKAKGQPREPQVCTLPPSRDELTKNQVSLWCLVKGFYPSDIAVEWESNGQPENNYKTTPPVLDSDGSFFLYSKLTVDKSRWQQGNVFSCSVMHEALHNRYTQKSLSLSP light: DIVMTQSPLSLPVTPGEPASISCRSSQSLVHSNRNTYLHWYQQKPGQAPRLLIYKVSNRESGVPDRFSGSGSGTDFTLKISRVEAEDVGVYYCGQGTQVPYTFGQGTKLEIKRTVAAPSVFIFPPSDEQLKSGTASVVCLLNNFYPREAKVQWKVDNALQSGNSQESVTEQDSKDSTYSLSSTLTLSKADYEKHKVYACEVTHQGLSSPVTKSFNRGEC | 0.72
